T1: RIFIN (PF3D7_1040300) V2 domain, His-tagged (Plasmodium falciparum 3D7, UniProt Q8IJ06 184-328)
T1 construct: RIFIN PF3D7_1040300 (RIF1) of Plasmodium falciparum 3D7, variable domain 2 (V2); PDB 7JZI holds the V2 domain of this RIFIN; also called RIF1; source: Expi293F or Expi293 GnTI- cells, transfected
T1 sequence: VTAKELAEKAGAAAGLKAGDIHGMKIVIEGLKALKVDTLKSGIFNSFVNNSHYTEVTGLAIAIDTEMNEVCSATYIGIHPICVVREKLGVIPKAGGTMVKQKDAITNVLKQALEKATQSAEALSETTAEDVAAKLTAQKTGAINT

B1: native human LAIR1 (receptor)
chain: QEEDLPRPSISAEPGTVIPLGSHVTFVCRGPVGVQTFRLERDSRSTYNDTEDVSQASPSESEARFRIDSVREGNAGLYRCIYYKPPKWSEQSDYLELLVKE
modifications: N-linked glycosylation at N153 (MGD21 numbering)
notes: Leukocyte-associated immunoglobulin-like receptor 1 (LAIR1), human, unmutated; Probably the same limits as the MGD21 LAIR1 ectodomain; also called hLAIR1; unmutated (native) LAIR1; source: Expi293F or Expi293 GnTI- cells, transfected

Columns and labels:
[1] = biological target: RIFIN (co-IP of the LAIR1 mutation series, Fig. 2c) (Plasmodium falciparum 3D7); assay: co-IP; conditioned media incubated with protein A resin for one hour at room temperature; Fc-tagged RIFIN or LAIR1 pulled down, partner without Fc co-pulled down; SDS-PAGE, Coomassie blue, bands quantified with ImageJ
[2] = biological target: RIFIN (co-IP of the LAIR1 mutation series, Fig. 2c); assay: co-immunoprecipitation (Protein A Co-IP, SDS-PAGE band quantification); settings: LAIR1 Fc tag; RIFIN-V2 MBP tag; n = 3 independent measurements; parent: est. 3.0; read off a plot
[3] = biological target: T1, RIFIN (PF3D7_1040300) V2 domain, …; assay: BLI; fortéBio Octet Red384; His-tagged RIFIN V2 domain immobilised on Ni-NTA biosensors, dipped into LAIR1 or MGD21 in a twofold concentration series; global fit, 1:1 Langmuir model; settings: both partners purified

| Molecule | fold increase in affinity over native LAIR1 [1] [fold] | other: % pulldown vs MGD21 (% of MGD21 LAIR1 pulldown) [2] | other results |
| --- | --- | --- | --- |
| LAIR1 N153S (receptor) | 10 |  |  |
| LAIR1 T151L (receptor) | 10 |  |  |
| native human LAIR1 (from UniProt Q6GTX8) T151L; N153S |  | 66 |  |
| native human LAIR1 (from UniProt Q6GTX8) T151L; N153S; A161T; P190S; P191R |  | 58 |  |
| native human LAIR1 (from UniProt Q6GTX8) T151L; N153S; P190S; P191R |  | 62 |  |
| B1 |  |  | Kd [3]: > 1000 nM |

— publication PMC8270905, “Structural basis of LAIR1 targeting by polymorphic Plasmodium RIFINs” (Nature Communications, 2021)
